The record followed here is publication PMC11796367.

This assay addresses CVA8 virion (strain 14-943/GS/CHN/2014) (coxsackievirus A8 (CVA8), strain GS14).

B1: hKRM1-Fc (human IgG Fc-fused human KRM1 ectodomain) (Fc fusion)
chain: APSPGLGPECFTANGADYRGTQNWTALQGGKPCLFWNETFQHPYNTLKYPNGEGGLGEHNYCRNPDGDVSPWCYVAEHEDGVYWKYCEIPACQMPGNLGCYKDHGNPPPLTGTSKTSNKLTIQTCISFCRSQRFKFAGMESGYACFCGNNPDYWKYGEAASTECNSVCFGDHTQPCGGDGRIILFDTLVGACGGNYSAMSSVVYSPDFPDTYATGRVCYWTIRVPGASHIHFSFPLFDIRDSADMVELLDGYTHRVLARFHGRSRPPLSFNVSLDFVILYFFSDRINQAQGFAVLYQAVKEELPQERPAVNQTVAEVITEQANLSVSAARSSKVLYVITTSPSHPPQTVPG
The molecule B1 yielded a neutralization of CVA8 strain GS14 infection of RD cells (cell viability assay) of 0.03 nM.

B2: mKrm1-Fc (human IgG1 Fc-fused mouse KRM1 ectodomain) (Fc fusion)
chain: APGPRSGPECFTANGADYRGTQSWTALQGGKPCLFWNETFQHPYNTLKYPNGEGGLGEHNYCRNPDGDVSPWCYVAEHEDGVYWKYCEIPACQMPGNLGCYKDHGNPPPLTGTSKTSNKLTIQTCISFCRSQRFKFAGMESGYACFCGNNPDYWKHGEAASTECNSVCFGDHTQPCGGDGRIILFDTLVGACGGNYSAMAAVVYSPDFPDTYATGRVCYWTIRVPGASRIHFNFTLFDIRDSADMVELLDGYTHRVLVRLSGRSRPPLSFNVSLDFVILYFFSDRINQAQGFAVLYQATKEEPPQERPAVNQTLAEVITEQANLSVSAAHSSKVLYVITPSPSHPPQTAPG
As to B2, the neutralization of CVA8 strain GS14 infection of RD cells (cell viability assay) was determined as 0.32 nM.
